Data set [1] has as its system T1, phi13 CI, His-TEV tag cleaved (Staphylococcus aureus phage phi13), ORF:0019350b.
T1 sequence: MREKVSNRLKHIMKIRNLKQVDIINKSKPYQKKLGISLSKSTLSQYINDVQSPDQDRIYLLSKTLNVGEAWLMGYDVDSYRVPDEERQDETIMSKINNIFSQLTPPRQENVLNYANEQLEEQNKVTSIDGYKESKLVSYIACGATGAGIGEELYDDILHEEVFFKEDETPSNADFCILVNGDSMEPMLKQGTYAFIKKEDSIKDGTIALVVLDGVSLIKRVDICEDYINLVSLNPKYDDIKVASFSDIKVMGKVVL
The experiment in a line: EMSA. For orientation: In EMSA bound probe runs differently from free probe, usually more slowly.

Data set [2] has as its system phi13 rCI (CI repressor, N-terminal His-TEV) (Staphylococcus aureus phage phi13). Description: EMSA. The note with it: Binding buffer (as listed, possibly stock) 100 mM Tris-HCl, 5 mM EDTA, 500 mM NaCl, 5 mM DTT, 25% glycerol, plus BSA and sheared DNA, pH not stated, ~0.5 nM ….
The test system is the same in data set [3]. The experiment in a line: EMSA. The note with it: Binding buffer (as listed, possibly stock) 100 mM Tris-HCl, 5 mM EDTA, 500 mM NaCl, 5 mM DTT, 25% glycerol, plus BSA and sheared DNA; pH not stated; ~0.5 nM ….
Data set [4] concerns phi13 CI, His-TEV tag cleaved (Staphylococcus aureus phage phi13). Description: EMSA. Conditions: Binding buffer (as listed, possibly stock) 100 mM Tris-HCl, 5 mM EDTA, 500 mM NaCl, 5 mM DTT, 25% glycerol, plus BSA and sheared DNA; pH not stated; ~0.5 nM ….
Data set [5] deals with ɸ13 rCI (recombinant CI repressor protein of phage ɸ13 with an N-terminal His-tag and TEV cleavage site) (S. aureus phage ɸ13). The experiment in a line: SEC; HiLoad 26/600 Superdex200 column; 20 mM Tris, 100 mM NaCl, pH 7.5; calibrated with Mw standards (Blue Dextran, Ferritin, Catalase, Aldolase, Carbonic Anhydrase, Aprotinin); tagged rCI after IMAC. In general terms: Size exclusion chromatography separates by hydrodynamic size, large species first.

[6] abbreviates: apparent, free-probe loss, no specific band detected.

Here are results for ten substances from article PMC8516035.

As to “GTAATACGACTCACTATAGGATAATAAAGCTTGTTGAACAAAAATTCAACAAAAAAGTTCATAAATCATGAATTTTTGTATTGACTTGATTCAAAACAAGGTGTAAAGTGGTAACTTTCACACAAAAGG (double strand) [OR]”, the Kd in data set [1] is 0.012 µM.

Turning to “GTAATACGACTCACTATAGGATATACCGGTAGAGAAAATACACTTATATTTTTTTAAAGAAAAAGTTCATGTTATATGAACTTAAGGAGGGGCACAATGGAACAAATCACGGATCCGGTAACTTTCACACAAAAGG (double strand) [OD]”, the Kd in data set [1] came to 0.012 µM.

For the substance “GTAATACGACTCACTATAGGGACTTGATTCAAAACAAGGTGTAAAGTATAGTTAAGTTCATGATACGTGAACTTGAGAGGAGGTGCTTTTATGTGTTACGACTACTCAGGTAACTTTCACACAAAAGG (double strand) [OL]”, the Kd in data set [1] turned out to be 0.012 µM.

Consider OD, for which the Kd in data set [2] turned out to be 0.0033 µM; in data set [3] it was 0.015 µM; in data set [4] it was 0.012 µM.

Turning to OD control, the Kd in data set [2] (setting [6]) amounted to 0.9 µM.

Consider OL, for which the Kd in data set [2] is 0.0039 µM; in data set [3], 0.022 µM; in data set [4] it was 0.012 µM.

As for OL control, in data set [2] (setting [6]), the Kd was 0.69 µM.

As to OR, the Kd in data set [2] was 0.1 µM; in data set [3] it was 0.31 µM; in data set [4], 0.012 µM.

As to OR control, the Kd in data set [2] (setting [6]) stood at 0.69 µM.

In general, stoichiometry N refers to the number of molecules, sites or subunits per partner or assembly. On to “ɸ13 rCI (recombinant CI repressor protein of phage ɸ13 with an N-terminal His-tag and TEV cleavage site)”, for which the stoichiometry N in data set [5] turned out to be 4.
